Publication PMC11997501 (Molecular Therapy, 2025)

Biological target: the molecule itself
Assay: western blot after SDS-PAGE of partially denatured samples

B1: murine MLC1 (natural protein, mouse (endogenous in C57BL/6J brain), UniProt Q8VHK5 1-382, looked up)
chain: MTREGQFREELGYDRMPTLERGRQDAGRQDPGSYTPDSKPKDLQLSKRLPPCFSYKTWVFSVLMGSCLLVTSGFSLYLGNVFPSEMDYLRCAAGSCIPSAIVSFAVGRRNVSAIPNFQILFVSTFAVTTTCLIWFGCKLILNPSAININFNLILLLLLELLMAATVIISARSSEEPCKKKKGSISDGSNILDEVTFPARVLKSYSVVEVIAGVSAVLGGVIALNVEEAVSGPHLSVTFFWILVACFPSAIASHVTAECPSKCLVEVLIAISSLTSPLLFTASGYLSFSVMRVVEIFKDYPPAIKSYDVLLLLLLLLLLLQGGLNTGTAIQCVSFKVSARLQAASWDPQSCPQERPAGEVVRGPLKEFDKEKAWRAVVVQMAQ
stoichiometry N: 2
